# Laboratory results taken from the nanobody polyreactivity screen of Harvey et al. (2022).
# Test: yeast display, Sf9 membrane polyspecificity reagent, FACS + sequencing; frameworks hold sequencing errors
# Method in brief: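 Galactose induction of a Saccharomyces cerevisiae BJ5465 synthetic nanobody display library ran 36–48 hours. The cells were then stained for 1 hour at 4 °C with 10% biotinylated, detergent-solubilized Sf9 membrane reagent, pulled down on streptavidin microbeads and FACS-sorted into low and high (top ~1%) gates on expression and reagent-binding fluorescence. Labels for polyreactivity follow the gate of origin.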
row,Sequence,polyreactivity (PSR sort gate)
1,QVQLVESGGGLVQAGGSLLLSCAASGIIFRYNTMGLYRQAPGKERELVAAIRTTGGSTNYADSVKGRFTISRDNAKNTVYLQMNSLKPEDTAVYYCNKGVSSRAFDYWGQGTQVTVSS,low polyreactivity
2,QVQLVESGGGLVQAGGSLLLSCAASGITSWYYVMGWYRQAPGKERELVAAITRSGGSTYYADSVKGRFTISRDTAKNTVFLQMNSLKPEDTAVYYCAARSYPQRWTTYPYGYWGQGTQVTVSS,high polyreactivity
3,QVQLVESGGGLVQAGGSLLLSCAASGRIFRYNAMGWYRQAPGKERELVAAISWTVGRTYYADSVKGRFTISRDNAMNTVYLQMNSLKPEDTAVYYCATYFRVWYRSYDYWGQGTQVTVSS,high polyreactivity
4,QVQLVESGGGLVQAGGSLLLSCAASGRTFATNAMGWNRQAPGKERELVADISGGGSTYYADSVKGRFTISRDNAKNTVYLQMNSMKPEDTAVYYCAARDYHWFQWYDYWGQGTQVTVSS,low polyreactivity
5,QVQLVESGGGLVQAGGSLLLSCAASGRTFYYNDMGWYRQAPGKERELVASISYGGSTYYADSVKGRFTISRDNAKNTVYLQMNSLKPEDTAVYYCATVDWRWRYARRPRYDYWGQGTQVTVSS,high polyreactivity
6,QVQLVESGGGLVQAGGSLLLSCAASGSIFFPNAMGWYRQAPGKERELVAAINWSGDSTYYADSVKGRFTISRDNAKNTVYLQMNSLKPVDTAVYSCNATYPWFDYDYWGQGTQVTVSS,low polyreactivity
7,QVQLVESGGGLVQAGGSLLLSCAASGSIFQQYAMGGSRQAPGKERDLVAAISWGDGSTYYADSVKGRFTISRDNAKNTVYLQMNSLKPEDTAVYYCNAYASAPLWSLEDDYWGKGTQVTVSS,low polyreactivity
8,QVQLVESGGGLVQAGGSLLLSCAASGSLFYRYAMGWYRQAPGKERELVAAISWGGGRTYYADSVKGRFTISRDNAKNTVYLQMNRLKPEDTAVYSCNREKYVRWIREDYDYWGQGTQVTVSS,high polyreactivity
9,QVQLVESGGGLVQAGGSLLLSCAASGSTLGRYAMGWYRQAPGKERELVASITWSDDSTYYADSVKGRFTISRDNAKNTVYLQMNSLKPEDTAVYYCAAAGNLYTYRFYYWGQGTQVTVSS,low polyreactivity
10,QVQLVESGGGLVQAGGSLLLSCAASGSTYKYAMGWYRQAPGKERELVAVISSGGSTDDADSVKGRFTISRDNAKNTVYLQMNSLKPEDTAVYYCAADSGFVSIGSYYWGLGTQVTVSS,low polyreactivity
11,QVQLVESGGGLVQAGGSLLLSCAASGYTFKSYVMGWYRQAPGKERELVAAITSIGGSTYYADSVKGRFTISRDNAKNNVYLQMNSLKPEDTALYYCAKYPGISGYNYWGQGTQVTVSS,high polyreactivity
12,QVQLVESGGGLVQAGGSLLLSCAATGITFVPNAMGWYRQAPGKERELVDAISTRGGSTYYADSVKGRFTISRDNAKNTVYLQMNSLKPEDTAVYYCNALITGRWFDYWGQGTQVTVSS,high polyreactivity
13,QVQLVESGGGLVQAGGSLLLSSADSGSTFNYNAMGWYRQSHGKERELVAVINSGGSTYYADSVKGRFTISRDNAKNTVYLQMNSLKPEDTAVYYCAAATYRQQWHYYWGQGTQGTVSS,high polyreactivity
14,QVQLVESGGGLVQAGGSLPLSCAASGATFTFYTMRSYRQAPGKERELVATISWRGGNTYYADSVKGRFTISRDNAKNTVYLQMNSLKPEDTAVYYCNAAPYRRGYGFREYDYWGQGTQVTVSS,high polyreactivity
15,QVQLVESGGGLVQAGGSLPLSCAASGFTFDKYAMGWYRQAPGKERELVAAISNSGGRTYYADSVKGRFTISRDNAKKTVYLQMNSLKPEDTAVYYCAAKFRYQYVRVAREYYYWGQGTQVTVSS,high polyreactivity
16,QVQLVESGGGLVQAGGSLPLSCAASGIIFSYNAKGWDRQAPGKERELDAAIRENGGSTYYADSVKGRFTISRDNAKNTVYLQMNSLKPEDTAGYYCAVATSYYAGYEYDYWGQGTQVTVSS,low polyreactivity
17,QVQLVESGGGLVQAGGSLPLSCAASGRIYDSYAKGWYIQAPGKERELVAAISFGGDTYYADSVKGRFTISRDNAKNTVYLQMNSLKPEDTAVYYCAKDNPAALFDSWGQGTQVTVSS,low polyreactivity
18,QVQLVESGGGLVQAGGSLPLSCAASGRTFDSYTMGWYRQAPGKERELVAAIRSSGGRTYADSVKGRFTISRDNAKNTVYLQMNSLKPEDTAVYYCAAARSYWAKYYYWGQGTQVTVSS,high polyreactivity
19,QVQLVESGGGLVQAGGSLPLSCAASGRTFPFNALGWYRQAPGKEREFVAAISVGGGSTYADSVKGRFTISRDNAKNTFYLQMNSLKPEDTAVYYCAAAYTKLYYYWGQGTQVTVSS,low polyreactivity
20,QVQLVESGGGLVQAGGSLPLSCAASGSIFTYYAMGSYRQAPGKEREFVAAISRRGGSTYYADSVKGRFTISRDNAKNTVYLQMNSLKPEDTAVYYCNARDTGSSLYYWGQGTQVTVSS,high polyreactivity
21,QVQLVESGGGLVQAGGSLPLSCAASGSIFWRNAMGWYRQAPGKEREFVATITWSGDSTYYADSVKGRFTISRDNAKNTVYLQMNSLKPEDTAVYYYAAAYSNWHPGLDYWGQGTPVTVSS,low polyreactivity
22,QVQLVESGGGLVQAGGSLPLSCAASGSTFNKYTMGWSRQPPGKERELVAAITSGDSTYYADSVKGRFTISRDNAKNTVYLQMNSLKPDDTAVYYCAKSLRAYRHVIYGKPFYSWGQGTQVTVSS,low polyreactivity

row,Sequence,polyreactivity (PSR sort gate)
1,QVQLVESGGGLVQAGGSLPLSCAASGYTFQRYAMGWYRQAPGKERELVAAITGAGGSTYYADSVKGRFTISRDNAKNTVYLQMNSLKPEDTAVYYCAARQYRRVIKHGYNYWGQGTQVTVSS,high polyreactivity
2,QVQLVESGGGLVQAGGSLRFSCAACGMTIWYYGMGSYRQAPGKERELLAAISKTGGRTYDADSVKGRFTISRDNAKNTVYLQMNRLKPEDTAVYNCNARYLLVSRYWENDYWGQATQVTVSS,low polyreactivity
3,QVQLVESGGGLVQAGGSLRFSCAASGFIFSFYAMGWYRQAPGKERELVAAISSSGSTNYADSVKGRFTISRDNAKNTVYLQMNSLKPEDTAVYYCAARWHRSRAGYYYWGQGTQVTVSS,high polyreactivity
4,QVQLVESGGGLVQAGGSLRFSCAASGFTFTVYAMGWYRQAPGKGRELVAAISWNGGSTYYADSVKGRFTISRDNATNTDYLQRNSLKPEDTAVYYCNKYYYRGVRYYRDHDYWGQGTQVTVSS,high polyreactivity
5,QVQLVESGGGLVQAGGSLRFSCAASGGTFSGYAMGWYRQAPGKERELVAAITSGGGTTYADSVKGRFTISRDNAKNTVYLQMNSLKPEDTAVYYCAKEGHVVIFYIGQYELDYWGQGTQVTVSS,low polyreactivity
6,QVQLVESGGGLVQAGGSLRFSCAASGGTFWYYAMGWYRQAPGKERELDASISRGGSTNYADSVKGRFTISRDNAKNTVYLQMNSLKPEDTAVYYCIAGLRVGPRRYVDYEYDYWGQGTQVTVSS,low polyreactivity
7,QVQLVESGGGLVQAGGSLRFSCAASGIIFYFYTMGWYRQAPGKERELVAAISSSGGRTFYADSVKGRFTISRDHAKNTVYLQMNSLKPEDTAVYYCAAGYPYGGDYWGQGTQVTVSS,high polyreactivity
8,QVQLVESGGGLVQAGGSLRFSCAASGLIFRGYVMGWYRQAPGKERELVAAISRRGVNTYYADSVKGRFTISRDNAKNTVYLQMNSLKPEDTAVYYCAAETHVGWPAKFDYWGQGTRVTVSS,high polyreactivity
9,QVQLVESGGGLVQAGGSLRFSCAASGLTFSWNAMGWDRQAPGQERELVAAITSSGTSTYYADSVKGRFSISRDNAKITVYLQMHSLKPEDTAVYYGAAEGDYWGWEDDYWGQGTQVTVSS,high polyreactivity
10,QVQLVESGGGLVQAGGSLRFSCAASGRIFDYYAMGGYRQAPGKERELVATINVSDGSTYYADSVKGRFTISRDNAKNTVYLQMNSLKPEDTAVYYCAAAGWVPFDSLDLNYWGQGTQVTVSS,low polyreactivity
11,QVQLVESGGGLVQAGGSLRFSCAASGRIFGRYAMGWYRQAPGKERELDAAISYSGGSTYYADSVKGRFTISRDNAKNTVYLQMNSLKPEDTAVYYCAVVVYQYTPSQRFYYWGQGTQVTVSS,high polyreactivity
12,QVQLVESGGGLVQAGGSLRFSCAASGRIFSIYAMGWYRQAPGKERELVAAISKRGGSTSYADSVKGRFTISRDNAKNTVYLQMNSLKPEDTAVYYCNARGWIPARGWDDYYWGQGTQVTVSS,high polyreactivity
13,QVQLVESGGGLVQAGGSLRFSCAASGRIFYANAMGWYRQAPGKERELVAAISSGGSTYYADSVKGRFTISRDNAKNTVFLQMNSLKPEDTAVYYCAVYTHKKVRPEYVYWGQGTQVTVSS,low polyreactivity
14,QVQLVESGGGLVQAGGSLRFSCAASGRNFVVYAMGWYRQAPRKEREFVAAITWSGDSTTYYADSVKGRFTISRDNAMTTFYLQLKSLKPDDTAVYYCASEGDGANGGAYDYWGQGTQVNVSS,low polyreactivity
15,QVQLVESGGGLVQAGGSLRFSCAASGRTFYGYAMGWYRQAPGKERELVAAITRSGGSTYYADSVKGRFTISRDNAKNTVYLQMNSLKPEDTAVYYCAAGGQARHDYWGQGTQVTVSS,low polyreactivity
16,QVQLVESGGGLVQAGGSLRFSCAASGSIIYFYAMGWYRQAPGKERELVATITSGGRTYYADSVKGRFTISRDTAKNTVYLQMNSLKPEDTAVYYCNRRPVSYRYSSYNYDYLGQGTQVTVSS,high polyreactivity
17,QVQLVESGGGLVQAGGSLRFSCAASGSILSKNAMGWYRQAPGKERELVAAISSGGSTYYADSVKGRFTISRDKAKNTVYLQLNSLKPEDTAVYYCATYCTSVAYHLYYWGQGTQVTVSS,low polyreactivity
18,QVQLVESGGGLVQAGGSLRFSCAASGSTFGDYTMGWYRQAPGKERELVAAISTSGTITYYADSVKGRFTISRDNAKNTVYLQMNSLKPEDTAVYYCAKLSQYTPVNDGYYWGQGTQVTVSS,low polyreactivity
19,QVQLVESGGGLVQAGGSLRFSCAASGSTFPYYAMGLYRQAPGKERELVATITKRGGRTYYADSVKGRFTISRDNAKNTVYLQMISLKPEDTAVYYCAARYRFAVTYEYWGQGTQVTVSS,high polyreactivity
20,QVQLVESGGGLVQAGGSLRFSCAASGYIFTPYAMGWYRQAPGKERELVAAISWSGGSTYYADSVKGRFTISRDNEKNTVYLQMNSLKPEDTAVYYCAAESAWGSRVFYSKFYYWGQGTQVTVSS,low polyreactivity
21,QVQLVESGGGLVQAGGSLRFSCAATGSISYGYAMGWYKQAHGKERELVAAISRRGGTTYFADSVKGRFTISRDNAKNSLYLQINSLKAEDTAVYYCNALLPDLAQYDYWGQGTQVTVSS,high polyreactivity
